Measurements taken from PMC6169833.

B1: Nup153-N wild type (1- to 608-amino-acid N-terminal construct of Nup153), C-terminally Flag-tagged [human] / endogenous Nup107 [human (endogenous in HEK293T)] (parent)
chain 1: MASGAGGVGGGGGGKIRTRRCHQGPIKPYQQGRQQHQGILSRVTESVKNIVPGWLQRYFNKNEDVCSCSTDTSEVPRWPENKEDHLVYADEESSNITDGRITPEPAVSNTEEPSTTSTASNYPDVLTRPSLHRSHLNFSMLESPALHCQPSTSSAFPIGSSGFSLVKEIKDSTSQHDDDNISTTSGFSSRASDKDITVSKNTSLPPLWSPEAERSHSLSQHTATSSKKPAFNLSAFGTLSPSLGNSSILKTSQLGDSPFYPGKTTYGGAAAAVRQSKLRNTPYQAPVRRQMKAKQLSAQSYGVTSSTARRILQSLEKMSSPLADAKRIPSIVSSPLNSPLDRSGIDITDFQAKREKVDSQYPPVQRLMTPKPVSIATNRSVYFKPSLTPSGEFRKTNQRIDNKCSTGYEKNMTPGQNREQRESGFSYPNFSLPAANGLSSGVGGGGGKMRRERTRFVASKPLEEEEMEVPVLPKISLPITSSSLPTFNFSSPEITTSSPSPINSSQALTNKVQMTSPSSTGSPMFKFSSPIVKSTEANVLPPSSIGFTFSVPVAKTAELSGSSSTLEPIISSSAHHVTTVNSTNCKKTPPEDCEGPFRPAEILKEGSV
chain 2: MDRSGFGEISSPVIREAEVTRTARKQSAQKRVLLQASQDENFGNTTPRNQVIPRTPSSFRQPFTPTSRSLLRQPDISCILGTGGKSPRLTQSSGFFGNLSMVTNLDDSNWAAAFSSQRSGLFTNTEPHSITEDVTISAVMLREDDPGEAASMSMFSDFLQSFLKHSSSTVFDLVEEYENICGSQVNILSKIVSRATPGLQKFSKTASMLWLLQQEMVTWRLLASLYRDRIQSALEEESVFAVTAVNASEKTVVEALFQRDSLVRQSQLVVDWLESIAKDEIGEFSDNIEFYAKSVYWENTLHTLKQRQLTSYVGSVRPLVTELDPDAPIRQKMPLDDLDREDEVRLLKYLFTLIRAGMTEEAQRLCKRCGQAWRAATLEGWKLYHDPNVNGGTELEPVEGNPYRRIWKISCWRMAEDELFNRYERAIYAALSGNLKQLLPVCDTWEDTVWAYFRVMVDSLVEQEIQTSVATLDETEELPREYLGANWTLEKVFEELQATDKKRVLEENQEHYHIVQKFLILGDIDGLMDEFSKWLSKSRNNLPGHLLRFMTHLILFFRTLGLQTKEEVSIEVLKTYIQLLIREKHTNLIAFYTCHLPQDLAVAQYALFLESVTEFEQRHHCLELAKEADLDVATITKTVVENIRKKDNGEFSHHDLAPALDTGTTEEDRLKIDVIDWLVFDPAQRAEALKQGNAIMRKFLASKKHEAAKEVFVKIPQDSIAEIYNQCEEQGMESPLPAEDDNAIREHLCIRAYLEAHETFNEWFKHMNSVPQKPALIPQPTFTEKVAHEHKEKKYEMDFGIWKGHLDALTADVKEKMYNVLLFVDGGWMVDVREDAKEDHERTHQMVLLRKLCLPMLCFLLHTILHSTGQYQECLQLADMVSSERHKLYLVFSKEELRKLLQKLRESSLMLLDQGLDPLGYEIQL

Variants of: B1
Test: Flag immunoprecipitation and Western blotting, quantified with ImageJ
Settings: HEK293T cells transfected with Nup153-N constructs, harvested 72 h after transfection, parent: 1, read off a plot

ratio to parent	Variant
0.57	chain 1 S516E S518E S519E S522E
